Test results as given in the supplement of paper PMC10567573.

B1: PPP2R2B (parent)
chain: RNTKRDVTLEASRENSKPRAILKP
B2: GNB5 (parent)
chain: DINSVRYYPSGDAFASGSDDATCR

Variants of: B1
Test: protein stability index of a GFP-peptide fusion (GPS, HEK-293T) (PSI 1-6); higher = more stable
Conditions: c terminus: a fixed tail appended
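Note: lentivirally expressed fusions sorted by FACS into six bins by GFP to DsRed ratio, PSI derived from sequencing read proportions per bin multiplied by bin number.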

| Variant | protein stability index |
| --- | --- |
| RNTKRDVTLEASRENSKPRAILKM | 4.06 |
| RNTKRDVTLEASRENSKPRAILKN | 4.82 |
| RNTKRDVTLEASRENSKPRAILKQ | 4.47 |
| RNTKRDVTLEASRENSKPRAILKR | 4.13 |
| RNTKRDVTLEASRENSKPRAILKS | 4.49 |
| RNTKRDVTLEASRENSKPRAILKT | 4.88 |
| RNTKRDVTLEASRENSKPRAILKV | 4 |
| RNTKRDVTLEASRENSKPRAILKW | 3.55 |
| RNTKRDVTLEASRENSKPRAILKY | 3.58 |

Variants of: B2
Test: as above
Conditions: c terminus: a fixed tail appended

| Variant | protein stability index |
| --- | --- |
| AINSVRYYPSGDAFASGSDDATCR | 4.18 |
| CINSVRYYPSGDAFASGSDDATCR | 3.44 |
| EINSVRYYPSGDAFASGSDDATCR | 4.1 |
| FINSVRYYPSGDAFASGSDDATCR | 2.54 |
| GINSVRYYPSGDAFASGSDDATCR | 4.36 |
| HINSVRYYPSGDAFASGSDDATCR | 3.48 |
| IINSVRYYPSGDAFASGSDDATCR | 3.48 |
| KINSVRYYPSGDAFASGSDDATCR | 3.85 |
| LINSVRYYPSGDAFASGSDDATCR | 3.73 |
| MINSVRYYPSGDAFASGSDDATCR | 3.81 |
| NINSVRYYPSGDAFASGSDDATCR | 4.37 |
| PINSVRYYPSGDAFASGSDDATCR | 3.33 |
| QINSVRYYPSGDAFASGSDDATCR | 4.23 |
| RINSVRYYPSGDAFASGSDDATCR | 4.04 |
| SINSVRYYPSGDAFASGSDDATCR | 4.74 |
| TINSVRYYPSGDAFASGSDDATCR | 3.95 |
| VINSVRYYPSGDAFASGSDDATCR | 3.58 |
| WINSVRYYPSGDAFASGSDDATCR | 2.68 |
| YINSVRYYPSGDAFASGSDDATCR | 2.5 |
| DANSVRYYPSGDAFASGSDDATCR | 4.41 |
| DCNSVRYYPSGDAFASGSDDATCR | 4.32 |
| DDNSVRYYPSGDAFASGSDDATCR | 5.39 |
| DENSVRYYPSGDAFASGSDDATCR | 4.87 |
| DFNSVRYYPSGDAFASGSDDATCR | 3.98 |
| DGNSVRYYPSGDAFASGSDDATCR | 4.54 |
| DHNSVRYYPSGDAFASGSDDATCR | 4.51 |

| Variant | protein stability index |
| --- | --- |
| DKNSVRYYPSGDAFASGSDDATCR | 4.68 |
| DLNSVRYYPSGDAFASGSDDATCR | 3.82 |
| DMNSVRYYPSGDAFASGSDDATCR | 4.1 |
| DNNSVRYYPSGDAFASGSDDATCR | 4.92 |
| DPNSVRYYPSGDAFASGSDDATCR | 4.92 |
| DQNSVRYYPSGDAFASGSDDATCR | 4.72 |
| DRNSVRYYPSGDAFASGSDDATCR | 4.36 |
| DSNSVRYYPSGDAFASGSDDATCR | 4.6 |
| DTNSVRYYPSGDAFASGSDDATCR | 4.49 |
| DVNSVRYYPSGDAFASGSDDATCR | 3.93 |
| DWNSVRYYPSGDAFASGSDDATCR | 3.99 |
| DYNSVRYYPSGDAFASGSDDATCR | 4.32 |
| DIASVRYYPSGDAFASGSDDATCR | 4.66 |
| DICSVRYYPSGDAFASGSDDATCR | 3.87 |
| DIDSVRYYPSGDAFASGSDDATCR | 5.08 |
| DIESVRYYPSGDAFASGSDDATCR | 4.52 |
| DIFSVRYYPSGDAFASGSDDATCR | 3.76 |
| DIGSVRYYPSGDAFASGSDDATCR | 4.53 |
| DIHSVRYYPSGDAFASGSDDATCR | 4.43 |
| DIISVRYYPSGDAFASGSDDATCR | 3.57 |
| DIKSVRYYPSGDAFASGSDDATCR | 4.04 |
| DILSVRYYPSGDAFASGSDDATCR | 3.35 |
| DIMSVRYYPSGDAFASGSDDATCR | 3.42 |
| DIPSVRYYPSGDAFASGSDDATCR | 4.64 |
| DIQSVRYYPSGDAFASGSDDATCR | 4.31 |
| DIRSVRYYPSGDAFASGSDDATCR | 4.55 |

| Variant | protein stability index |
| --- | --- |
| DISSVRYYPSGDAFASGSDDATCR | 4.07 |
| DITSVRYYPSGDAFASGSDDATCR | 3.77 |
| DIVSVRYYPSGDAFASGSDDATCR | 3.56 |
| DIWSVRYYPSGDAFASGSDDATCR | 3.74 |
| DIYSVRYYPSGDAFASGSDDATCR | 3.68 |
| DINAVRYYPSGDAFASGSDDATCR | 3.95 |
| DINCVRYYPSGDAFASGSDDATCR | 3.44 |
| DINDVRYYPSGDAFASGSDDATCR | 4.53 |
| DINEVRYYPSGDAFASGSDDATCR | 4.29 |
| DINFVRYYPSGDAFASGSDDATCR | 3.48 |
| DINGVRYYPSGDAFASGSDDATCR | 3.6 |
| DINHVRYYPSGDAFASGSDDATCR | 4.07 |
| DINIVRYYPSGDAFASGSDDATCR | 3.55 |
| DINKVRYYPSGDAFASGSDDATCR | 4.08 |
| DINLVRYYPSGDAFASGSDDATCR | 3.42 |
| DINMVRYYPSGDAFASGSDDATCR | 4.21 |
| DINNVRYYPSGDAFASGSDDATCR | 3.55 |
| DINPVRYYPSGDAFASGSDDATCR | 4.32 |
| DINQVRYYPSGDAFASGSDDATCR | 3.83 |
| DINRVRYYPSGDAFASGSDDATCR | 3.81 |
| DINTVRYYPSGDAFASGSDDATCR | 4.23 |
| DINVVRYYPSGDAFASGSDDATCR | 2.55 |
| DINWVRYYPSGDAFASGSDDATCR | 3.22 |
| DINYVRYYPSGDAFASGSDDATCR | 3.75 |
| DINSARYYPSGDAFASGSDDATCR | 4.38 |
| DINSCRYYPSGDAFASGSDDATCR | 3.81 |

| Variant | protein stability index |
| --- | --- |
| DINSDRYYPSGDAFASGSDDATCR | 4.41 |
| DINSERYYPSGDAFASGSDDATCR | 4.61 |
| DINSFRYYPSGDAFASGSDDATCR | 3.74 |
| DINSGRYYPSGDAFASGSDDATCR | 3.77 |
| DINSHRYYPSGDAFASGSDDATCR | 3.91 |
| DINSIRYYPSGDAFASGSDDATCR | 4.19 |
| DINSKRYYPSGDAFASGSDDATCR | 3.91 |
| DINSLRYYPSGDAFASGSDDATCR | 3.49 |
| DINSMRYYPSGDAFASGSDDATCR | 3.92 |
| DINSNRYYPSGDAFASGSDDATCR | 3.46 |
| DINSPRYYPSGDAFASGSDDATCR | 4.51 |
| DINSQRYYPSGDAFASGSDDATCR | 3.85 |
| DINSRRYYPSGDAFASGSDDATCR | 3.73 |
| DINSSRYYPSGDAFASGSDDATCR | 4.26 |
| DINSTRYYPSGDAFASGSDDATCR | 4.28 |
| DINSWRYYPSGDAFASGSDDATCR | 3.88 |
| DINSYRYYPSGDAFASGSDDATCR | 3.6 |
| DINSVAYYPSGDAFASGSDDATCR | 4.44 |
| DINSVCYYPSGDAFASGSDDATCR | 3.9 |
| DINSVDYYPSGDAFASGSDDATCR | 4.58 |
| DINSVEYYPSGDAFASGSDDATCR | 5.13 |
| DINSVFYYPSGDAFASGSDDATCR | 3.57 |
| DINSVGYYPSGDAFASGSDDATCR | 4.3 |
| DINSVHYYPSGDAFASGSDDATCR | 4.26 |
| DINSVIYYPSGDAFASGSDDATCR | 3.88 |
| DINSVKYYPSGDAFASGSDDATCR | 4.34 |

| Variant | protein stability index |
| --- | --- |
| DINSVLYYPSGDAFASGSDDATCR | 3.56 |
| DINSVMYYPSGDAFASGSDDATCR | 4.04 |
| DINSVNYYPSGDAFASGSDDATCR | 4.31 |
| DINSVPYYPSGDAFASGSDDATCR | 4.29 |
| DINSVQYYPSGDAFASGSDDATCR | 4.64 |
| DINSVSYYPSGDAFASGSDDATCR | 4.41 |
| DINSVTYYPSGDAFASGSDDATCR | 4.82 |
| DINSVVYYPSGDAFASGSDDATCR | 3.91 |
| DINSVWYYPSGDAFASGSDDATCR | 3.33 |
| DINSVYYYPSGDAFASGSDDATCR | 3.62 |
| DINSVRAYPSGDAFASGSDDATCR | 4.5 |
| DINSVRCYPSGDAFASGSDDATCR | 3.87 |
| DINSVRDYPSGDAFASGSDDATCR | 4.77 |
| DINSVREYPSGDAFASGSDDATCR | 5.19 |
| DINSVRFYPSGDAFASGSDDATCR | 3.87 |
| DINSVRGYPSGDAFASGSDDATCR | 4.39 |
| DINSVRHYPSGDAFASGSDDATCR | 4.38 |
| DINSVRIYPSGDAFASGSDDATCR | 3.76 |
| DINSVRKYPSGDAFASGSDDATCR | 4.35 |
| DINSVRLYPSGDAFASGSDDATCR | 3.61 |
| DINSVRMYPSGDAFASGSDDATCR | 4.12 |
| DINSVRNYPSGDAFASGSDDATCR | 4.26 |
| DINSVRPYPSGDAFASGSDDATCR | 4.46 |
| DINSVRQYPSGDAFASGSDDATCR | 4.21 |
| DINSVRRYPSGDAFASGSDDATCR | 4.2 |
| DINSVRSYPSGDAFASGSDDATCR | 4.69 |

| Variant | protein stability index |
| --- | --- |
| DINSVRTYPSGDAFASGSDDATCR | 4.64 |
| DINSVRVYPSGDAFASGSDDATCR | 4.51 |
| DINSVRWYPSGDAFASGSDDATCR | 3.11 |
| DINSVRYAPSGDAFASGSDDATCR | 4.49 |
| DINSVRYCPSGDAFASGSDDATCR | 4.43 |
| DINSVRYDPSGDAFASGSDDATCR | 4.87 |
| DINSVRYEPSGDAFASGSDDATCR | 4.8 |
| DINSVRYFPSGDAFASGSDDATCR | 3.82 |
| DINSVRYGPSGDAFASGSDDATCR | 4.43 |
| DINSVRYHPSGDAFASGSDDATCR | 3.78 |
| DINSVRYIPSGDAFASGSDDATCR | 4.5 |
| DINSVRYKPSGDAFASGSDDATCR | 3.79 |
| DINSVRYLPSGDAFASGSDDATCR | 4.39 |
| DINSVRYMPSGDAFASGSDDATCR | 4.55 |
| DINSVRYNPSGDAFASGSDDATCR | 4.34 |
| DINSVRYPPSGDAFASGSDDATCR | 4.63 |
| DINSVRYQPSGDAFASGSDDATCR | 4.77 |
| DINSVRYRPSGDAFASGSDDATCR | 4.65 |
| DINSVRYSPSGDAFASGSDDATCR | 3.94 |
| DINSVRYTPSGDAFASGSDDATCR | 4.45 |
| DINSVRYVPSGDAFASGSDDATCR | 4.55 |
| DINSVRYWPSGDAFASGSDDATCR | 4.24 |
| DINSVRYYASGDAFASGSDDATCR | 3.59 |
| DINSVRYYCSGDAFASGSDDATCR | 3.17 |
| DINSVRYYDSGDAFASGSDDATCR | 4.43 |
| DINSVRYYESGDAFASGSDDATCR | 4.16 |

| Variant | protein stability index |
| --- | --- |
| DINSVRYYFSGDAFASGSDDATCR | 2.74 |
| DINSVRYYGSGDAFASGSDDATCR | 4.13 |
| DINSVRYYHSGDAFASGSDDATCR | 3.52 |
| DINSVRYYISGDAFASGSDDATCR | 2.7 |
| DINSVRYYKSGDAFASGSDDATCR | 3.62 |
| DINSVRYYLSGDAFASGSDDATCR | 3.26 |
| DINSVRYYMSGDAFASGSDDATCR | 3.3 |
| DINSVRYYNSGDAFASGSDDATCR | 3.82 |
| DINSVRYYQSGDAFASGSDDATCR | 3.8 |
| DINSVRYYRSGDAFASGSDDATCR | 3.69 |
| DINSVRYYSSGDAFASGSDDATCR | 4.17 |
| DINSVRYYTSGDAFASGSDDATCR | 4.02 |
| DINSVRYYVSGDAFASGSDDATCR | 3.62 |
| DINSVRYYWSGDAFASGSDDATCR | 3.23 |
| DINSVRYYYSGDAFASGSDDATCR | 3.35 |
| DINSVRYYPAGDAFASGSDDATCR | 3.76 |
| DINSVRYYPCGDAFASGSDDATCR | 3.49 |
| DINSVRYYPDGDAFASGSDDATCR | 4.32 |
| DINSVRYYPEGDAFASGSDDATCR | 4.63 |
| DINSVRYYPFGDAFASGSDDATCR | 3.3 |
| DINSVRYYPGGDAFASGSDDATCR | 4.35 |
| DINSVRYYPHGDAFASGSDDATCR | 3.65 |
| DINSVRYYPIGDAFASGSDDATCR | 3.76 |
